Laboratory results reported in patent US20170247475A1 (Boehringer Ingelheim, published 2017).

Legend:
human VEGF-C = target: T1, human VEGF-C (human, UniProt P49767 103-227); experiment: binding ELISA on coated VEGFC
T1 construct: also called hVEGF-C
T1 sequence (looked up): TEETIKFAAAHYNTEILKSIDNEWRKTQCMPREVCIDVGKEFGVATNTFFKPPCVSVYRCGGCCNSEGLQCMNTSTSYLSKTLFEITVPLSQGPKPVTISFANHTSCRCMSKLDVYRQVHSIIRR
Experimental: (§1) Binding to VEGFB, VEGFC, VEGFD and PIGF is assessed via a solid phase binding ELISA. In brief, VEGFB, VEGFC, VEGFD and PIGF (R&D Systems, Minneapolis, Minn., USA) are coated overnight at 4° C. at 1 μg/mL in a 96-well MaxiSorp plate (Nunc, Wiesbaden, Germany). Wells are blocked with a casein solution (1% in PBS). […] As positive controls serial dilutions of the appropriate receptors are taken along and detected with horseradish peroxidase (HRP)-conjugated goat anti-human IgG, Fc specific antibody (Jackson Immuno Research Laboratories Inc., West Grove, Pa., USA) and a subsequent enzymatic reaction in the presence of the substrate TMB (3,3′,5,5′-tetramentylbenzidine) (Pierce, Rockford, Ill., USA).

[1] = target: T2, recombinant mouse VEGF164 (mouse, UniProt Q00731-2 27-190); experiment: binding ELISA on coated mouse VEGF164
T2 construct: biotinylated in the mVEGFR2 AlphaScreen; also called rmVEGF164; mVEGF164
T2 sequence (looked up): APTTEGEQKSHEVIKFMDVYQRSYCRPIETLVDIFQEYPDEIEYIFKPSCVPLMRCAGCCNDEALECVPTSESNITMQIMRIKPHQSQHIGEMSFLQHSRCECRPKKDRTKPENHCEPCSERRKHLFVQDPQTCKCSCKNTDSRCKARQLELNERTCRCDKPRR
Experimental: (§2) Cross-reactivity to mouse VEGF164 is determined using a binding ELISA. […] Wells are blocked with a casein solution (1% in PBS). […] A mouse VEGF164 reactive mAb is included as positive control.

[2] = target: T3, recombinant human VEGF165 (human, UniProt P15692-4 27-191); experiment: hVEGF165/hVEGFR2-Fc competition AlphaScreen
T3 construct: also called hVEGF165; rhVEGF165
Experimental: (§3) Finally, streptavidin donor beads (20 μg/ml) are added and after 1 hour of incubation in the dark, fluorescence is measured on the Envision microplate reader.

[3] = target: T3, recombinant human VEGF165; experiment: binding ELISA, coated rhVEGF165
[4] = target: T3, recombinant human VEGF165; experiment: VEGF/VEGFR2 competition AlphaScreen
Experimental: as §3

[5] = target: T3, recombinant human VEGF165; experiment: ka1; SPR Biacore T100, hVEGF165 on chip, Two State Reaction model
Experimental: (§4) Samples are injected for 2 min and allowed to dissociate up to 20 min at a flow rate of 45 μI/min. In between sample injections, the chip surface is regenerated with 100 mM HCl. HBS-EP+(Hepes buffer pH7.4+EDTA) is used as running buffer. Binding curves are fitted using a Two State Reaction model by Biacore T100 Evaluation Software v2.0.1.
(§5) ^{(a)}KD = kd1/kₐ₁ * (kd2/(kd2 + kₐ₂)) ^{(b)}Curves are fitted using a Two State Reaction model by Biacore T100 Evaluation Software v2.0.1

[6] = target: T3, recombinant human VEGF165; experiment: SPR Biacore T100, Two State Reaction model; KD = kd1/ka1 * (kd2/(kd2 + ka2))
Experimental: as §4, §5

[7] = target: T3, recombinant human VEGF165; experiment: kd1; SPR Biacore T100, hVEGF165 on chip, Two State Reaction model
Experimental: as §4, §5

[8] = target: T3, recombinant human VEGF165; experiment: VEGF/VEGFR1 competition AlphaScreen
Experimental: as §3

[9] = target: T3, recombinant human VEGF165; experiment: VEGF165/hVEGFR1-Fc competition AlphaScreen
Experimental: as §3

human VEGF-B = target: T4, human VEGF-B (human, UniProt P49765-2 22-188, limits assumed); experiment: binding ELISA on coated VEGFB
T4 construct: also called hVEGF-B
T4 sequence (looked up): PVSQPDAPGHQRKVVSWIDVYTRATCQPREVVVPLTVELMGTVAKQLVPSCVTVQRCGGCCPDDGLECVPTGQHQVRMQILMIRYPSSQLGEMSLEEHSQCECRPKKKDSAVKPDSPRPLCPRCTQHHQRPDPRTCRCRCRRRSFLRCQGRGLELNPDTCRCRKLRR
Experimental: as §1

[10] = target: T3, recombinant human VEGF165; experiment: SPR Biacore T100, hVEGF165 on chip, Two State Reaction model
Experimental: as §4, §5

[11] = target: T5, recombinant human VEGF121 (human, UniProt P15692-9 27-147); experiment: binding ELISA, coated rhVEGF121
T5 construct: also called rhVEGF121; hVEGF121
T5 sequence (looked up): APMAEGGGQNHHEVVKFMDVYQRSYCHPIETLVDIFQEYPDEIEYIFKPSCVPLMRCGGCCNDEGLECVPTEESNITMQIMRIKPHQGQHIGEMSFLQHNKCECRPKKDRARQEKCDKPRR
Experimental: Binding to recombinant human VEGF121 is assessed via a solid phase binding ELISA. Briefly, recombinant human VEGF121 (R&D Systems, Minneapolis, Minn., USA) is coated overnight at 4° C. at 1 μg/mL in a 96-well MaxiSorp plate (Nunc, Wiesbaden, Germany). Wells are blocked with a casein solution (1% in PBS).

human PIGF = target: T6, human PIGF (human, UniProt P49763-2 21-149, limits assumed); experiment: binding ELISA on coated PIGF
T6 construct: also called hPIGF; PLGF
T6 sequence (looked up): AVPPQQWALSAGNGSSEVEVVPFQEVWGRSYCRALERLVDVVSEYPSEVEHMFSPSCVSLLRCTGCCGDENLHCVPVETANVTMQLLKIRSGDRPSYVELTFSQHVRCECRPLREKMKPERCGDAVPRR
Experimental: as §1

VEGF [12] = experiment: cell-based or functional assay
[13] = target: T3, recombinant human VEGF165; experiment: hVEGF165/hVEGFR2-Fc competition ELISA
human VEGF-D = target: T7, human VEGF-D (human, UniProt O43915 93-201); experiment: binding ELISA on coated VEGF D
T7 construct: also called hVEGF-D
T7 sequence (looked up): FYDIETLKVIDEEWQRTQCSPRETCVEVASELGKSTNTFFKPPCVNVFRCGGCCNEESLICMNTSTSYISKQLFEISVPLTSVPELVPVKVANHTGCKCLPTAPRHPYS
Experimental: as §1

VEGF [14] = experiment: cell-based or functional assay; remark: listed apart in the source
[15] = target: T2, recombinant mouse VEGF164; experiment: binding ELISA, coated rmVEGF164
Experimental: as §2

[16] = target: T3, recombinant human VEGF165; experiment: VEGF165/hVEGFR1-Fc competition ELISA

Binder	binding result (human VEGF-C)	% inhibition [2]	IC50 [2]	EC50 [3]	IC50 [4]	kon [5]	Kd [6]	koff [7]	% inhibition [8]	IC50 [8]	% inhibition [9]	IC50 [9]	binding result (human VEGF-B)	ka2 [10]	kd2 [10]	binding result (human PIGF)	% inhibition, VEGF HUVEC Erk phosphorylation assay (VEGF [12])	IC50 (nM), VEGF HUVEC Erk phosphorylation assay (VEGF [12])	% inhibition [13]	IC50 [13]	also measured
VEGFBII025 (VHH, biparatopic bivalent VHH in one chain; also called VEGFBII10E07-40GS-23B04) EVQLVESGGGLVQAGGSLRLSCAASGRTFSNYAMGWFRQAPGKERVLVADISSSGINTYVADAVKGRFTISRDNAKNTVYLQMNSLKPEDTAVYYCAASAWWYSQMARDNYRYWGQGTQVTVSSGGGGSGGGGSGGGGSGGGGSGGGGSGGGGSGGGGSGGGGSEVQLVESGGGLVQTGDSLRLSCEVSGRTFSSYSMGWFRQAQGKEREFVVAISKGGYKYDSVSLEGRFTISKDNAKNTVYLQINSLKPEDTAVYYCASSRAYGSSRLRLADTYEYWGQGTQVTVSS	no binding (tested: 5e-7 M)	100%	0.051 nM	0.668 nM	0.051 nM	330000 M⁻¹ s⁻¹	1.1 nM	0.017 s⁻¹	82%	0.039 nM	82%	0.071 nM	no binding (tested: 5e-7 M)	0.018 s⁻¹	0.00037 s⁻¹	no binding (tested: 5e-7 M)	99%	0.23 nM	100%	0.577 nM	binding result [1]: binds; EC50 [11]: 0.475 nM; binding result (human VEGF-D): no binding (tested: 5e-7 M)
VEGFBII023 (VHH, biparatopic bivalent VHH in one chain; also called VEGFBII23B04-40GS-10E07; VEGFBI023) EVQLVESGGGLVQTGDSLRLSCEVSGRTFSSYSMGWFRQAQGKEREFVVAISKGGYKYDSVSLEGRFTISKDNAKNTVYLQINSLKPEDTAVYYCASSRAYGSSRLRLADTYEYWGQGTQVTVSSGGGGSGGGGSGGGGSGGGGSGGGGSGGGGSGGGGSGGGGSEVQLVESGGGLVQAGGSLRLSCAASGRTFSNYAMGWFRQAPGKERVLVADISSSGINTYVADAVKGRFTISRDNAKNTVYLQMNSLKPEDTAVYYCAASAWWYSQMARDNYRYWGQGTQVTVSS	no binding (tested: 5e-7 M)	100%	0.046 nM	0.221 nM	0.038 nM	300000 M⁻¹ s⁻¹	0.69 nM	0.018 s⁻¹	91%	0.044 nM	87%	0.048 nM	no binding (tested: 5e-7 M)	0.024 s⁻¹	0.00027 s⁻¹	no binding (tested: 5e-7 M)	100%	0.25 nM	100%	0.213 nM	binding result [1]: binds; binding result (human VEGF-D): no binding (tested: 5e-7 M)
VEGFBII021 (VHH, biparatopic bivalent VHH in one chain; also called VEGFBII23B04-40GS-5B05) EVQLVESGGGLVQTGDSLRLSCEVSGRTFSSYSMGWFRQAQGKEREFVVAISKGGYKYDSVSLEGRFTISKDNAKNTVYLQINSLKPEDTAVYYCASSRAYGSSRLRLADTYEYWGQGTQVTVSSGGGGSGGGGSGGGGSGGGGSGGGGSGGGGSGGGGSGGGGSEVQLVESGGGLVQPGGSLRLSCVASGIRFMSMAWYRQAPGKHRELVARISSGGTTAYVDSVKGRFTISRDNSKNTVYLQMNSLKAEDTAVYYCNTFSSRPNPWGAGTQVTVSS	no binding (tested: 5e-7 M)	100%	0.007 nM	0.334 nM	0.009 nM	1.2e+06 M⁻¹ s⁻¹	0.07 nM	0.011 s⁻¹	100%	0.016 nM	100%	0.012 nM	no binding (tested: 5e-7 M)	0.023 s⁻¹	0.00019 s⁻¹	no binding (tested: 5e-7 M)	103%	0.21 nM	100%	0.204 nM	% inhibition, VEGF HUVEC proliferation assay (VEGF [14]): 98%; IC50 (nM), VEGF HUVEC proliferation assay (VEGF [14]): 0.4 nM; EC50 [15]: 0.502 nM; % inhibition [16]: 97%; IC50 [16]: 0.254 nM; binding result (human VEGF-D): no binding (tested: 5e-7 M)
